Ratio to parent data for three variants are collected here from publication PMC11863153, “Mechanistic Insights Into Oxidative Response of Heat Shock Factor 1 Condensates” (JACS Au, 2025).

B1: Heat shock factor 1 (Hsf1) wild-type [human] / itself (parent)
chain: MDLPVGPGAAGPSNVPAFLTKLWTLVSDPDTDALICWSPSGNSFHVFDQGQFAKEVLPKYFKHNNMASFVRQLNMYGFRKVVHIEQGGLVKPERDDTEFQHPCFLRGQEQLLENIKRKVTSVSTLKSEDIKIRQDSVTKLLTDVQLMKGKQECMDSKLLAMKHENEALWREVASLRQKHAQQQKVVNKLIQFLISLVQSNRILGVKRKIPLMLNDSGSAHSMPKYSRQFSLEHVHGSGPYSAPSPAYSSSSLYAPDAVASSGPIISDITELAPASPMASPGGSIDERPLSSSPLVRVKEEPPSPPQSPRVEEASPGRPSSVDTLLSPTALIDSILRESEPAPASVTALTDARGHTDTEGRPPSPPPTSTPEKCLSVACLDKNELSDHLDAMDSNLDNLQTMLSSHGFSVDTSALLDLFSPSVTVPDMSLPDLDSSLASIQELLSPQEPPRPPEAENSSPDSGKQLVHYTAQPLFLLDPGSVDTGSNDLPVLFELGEGSYFSEGDGFAEDPTISLLTGSEPPKAKDPTVS

In this experiment the parent is B1. As to the kind of experiment: nonreducing SDS-PAGE, quantification of higher-order oligomer bands. Particulars: with itself; purified Hsf1 mutants; means ± s.d. of three independent experiments; parent: 1; read off a plot.
As to MDLPVGPGAAGPSNVPAFLTKLWTLVSDPDTDALISWSPSGNSFHVFDQGQFAKEVLPKYFKHNNMASFVRQLNMYGFRKVVHIEQGGLVKPERDDTEFQHPSFLRGQEQLLENIKRKVTSVSTLKSEDIKIRQDSVTKLLTDVQLMKGKQECMDSKLLAMKHENEALWREVASLRQKHAQQQKVVNKLIQFLISLVQSNRILGVKRKIPLMLNDSGSAHSMPKYSRQFSLEHVHGSGPYSAPSPAYSSSSLYAPDAVASSGPIISDITELAPASPMASPGGSIDERPLSSSPLVRVKEEPPSPPQSPRVEEASPGRPSSVDTLLSPTALIDSILRESEPAPASVTALTDARGHTDTEGRPPSPPPTSTPEKCLSVACLDKNELSDHLDAMDSNLDNLQTMLSSHGFSVDTSALLDLFSPSVTVPDMSLPDLDSSLASIQELLSPQEPPRPPEAENSSPDSGKQLVHYTAQPLFLLDPGSVDTGSNDLPVLFELGEGSYFSEGDGFAEDPTISLLTGSEPPKAKDPTVS [chain 1 C36S C103S], the ratio to parent worked out at 1.1 AU. Regarding MDLPVGPGAAGPSNVPAFLTKLWTLVSDPDTDALICWSPSGNSFHVFDQGQFAKEVLPKYFKHNNMASFVRQLNMYGFRKVVHIEQGGLVKPERDDTEFQHPCFLRGQEQLLENIKRKVTSVSTLKSEDIKIRQDSVTKLLTDVQLMKGKQESMDSKLLAMKHENEALWREVASLRQKHAQQQKVVNKLIQFLISLVQSNRILGVKRKIPLMLNDSGSAHSMPKYSRQFSLEHVHGSGPYSAPSPAYSSSSLYAPDAVASSGPIISDITELAPASPMASPGGSIDERPLSSSPLVRVKEEPPSPPQSPRVEEASPGRPSSVDTLLSPTALIDSILRESEPAPASVTALTDARGHTDTEGRPPSPPPTSTPEKCLSVACLDKNELSDHLDAMDSNLDNLQTMLSSHGFSVDTSALLDLFSPSVTVPDMSLPDLDSSLASIQELLSPQEPPRPPEAENSSPDSGKQLVHYTAQPLFLLDPGSVDTGSNDLPVLFELGEGSYFSEGDGFAEDPTISLLTGSEPPKAKDPTVS [chain 1 C153S], the ratio to parent is 0.46 AU. In the case of MDLPVGPGAAGPSNVPAFLTKLWTLVSDPDTDALICWSPSGNSFHVFDQGQFAKEVLPKYFKHNNMASFVRQLNMYGFRKVVHIEQGGLVKPERDDTEFQHPCFLRGQEQLLENIKRKVTSVSTLKSEDIKIRQDSVTKLLTDVQLMKGKQECMDSKLLAMKHENEALWREVASLRQKHAQQQKVVNKLIQFLISLVQSNRILGVKRKIPLMLNDSGSAHSMPKYSRQFSLEHVHGSGPYSAPSPAYSSSSLYAPDAVASSGPIISDITELAPASPMASPGGSIDERPLSSSPLVRVKEEPPSPPQSPRVEEASPGRPSSVDTLLSPTALIDSILRESEPAPASVTALTDARGHTDTEGRPPSPPPTSTPEKSLSVASLDKNELSDHLDAMDSNLDNLQTMLSSHGFSVDTSALLDLFSPSVTVPDMSLPDLDSSLASIQELLSPQEPPRPPEAENSSPDSGKQLVHYTAQPLFLLDPGSVDTGSNDLPVLFELGEGSYFSEGDGFAEDPTISLLTGSEPPKAKDPTVS [chain 1 C373S C378S] it was 1.4 AU.
